Source: paper PMC7617285, “Dehydrogenase versus oxidase function: the interplay between substrate binding and flavin microenvironment” (ACS catalysis, 2025)
Positions count from the first letter of the chain named. Names may count otherwise.

How the values were obtained:
Assay in all cases: purified protein
[1] = substrate: COc1cc(CO)ccc1O; type: biochemical, Hyphococcus luteus; conditions: 100 μM DCPIP as acceptor, 25 °C, 50 mM potassium phosphate pH 7.5, 150 mM NaCl
[2] = substrate: COc1cc(CO)ccc1O; type: biochemical, Rhodococcus jostii; conditions: molecular oxygen as acceptor, 25 °C, 50 mM potassium phosphate pH 7.5, 150 mM NaCl
[3] = substrate: C=CCc1ccc(O)c(OC)c1; type: biochemical, Hyphococcus luteus; conditions: 100 μM DCPIP as acceptor, 25 °C, 50 mM potassium phosphate pH 7.5, 150 mM NaCl
[4] = substrate: COCc1ccc(O)cc1; type: biochemical, Hyphococcus luteus; conditions: 100 μM DCPIP as acceptor, 25 °C, 50 mM potassium phosphate pH 7.5, 150 mM NaCl
[5] = substrate: OCc1ccc(O)cc1; type: biochemical, Hyphococcus luteus; conditions: 100 μM DCPIP as acceptor, 25 °C, 50 mM potassium phosphate pH 7.5, 150 mM NaCl

B1: VAD (vanillyl-alcohol dehydrogenase from Marinicaulis flavus) (Hyphococcus luteus; P151I) (protein)
chain: MAAPLPEGVSAEAMSSALDRFARIVGADWVFTEDKITPYEDPYTISNDETEHRPYAAVAPASTEEVQEIVRVANEFGVPLWPVSRGKNFAYGGAAPVMSGTVVLDMNRMNRILEVNEEFGYALVEPGVSYFELYDYIQEKGLKLWIDVPDIGWGSVVGNALDHGIGYTPYGDHFAMQCGMEVVLPNGEVVRTGMGAMPGNNTWQLFKYGYGPYVDGIFSQSNFGVVTKMGIWLMPEPAGYRPYLITFENEDDIETVTERLRPLKVAGVIQNGATVRSLVLDAAITRTKSQYYDGDGPIPPSVAKTMMADLDLGMWNFCGALYGPPPVMDTLWTAIRDSFADIPGVKFYFPEDRRHKVDLLLHRAETMKGVPKLTEFNFLNWDGGGGHVGFSPVSPITGKDAIKQYNMVSSRVREYGFDYMGLLAIGWRDLHHVTVIVYDKTDPDERKKLDELFNILVDEAAAEGYGEYRTHIRYMDRIAKTYSWNDNALWKMHETIKDALDPNGILAPGKSGIWGKNRRKA
notes: SUMO tag cleaved for crystals; covalent FAD on H387; dimer
- Km [1]: 37.5 ± 9.2 µM
- kcat [1]: 0.73 ± 0.04 s⁻¹
- kcat/Km [1]: 19000 M⁻¹ s⁻¹

B2: VAD (vanillyl-alcohol dehydrogenase from Marinicaulis flavus) (Hyphococcus luteus; P151G) (protein)
chain: B1 chain with I151G
notes: as for B1
- Km [1]: 316.5 ± 39.7 µM
- kcat [1]: 1.49 ± 0.07 s⁻¹
- kcat/Km [1]: 5000 M⁻¹ s⁻¹

B3: VAD (vanillyl-alcohol dehydrogenase from Marinicaulis flavus) (Hyphococcus luteus; P151N) (protein)
chain: B1 chain with I151N
notes: as for B1
- Km [1]: 151 ± 24 µM
- kcat [1]: 0.14 ± 0.07 s⁻¹
- kcat/Km [1]: 1000 M⁻¹ s⁻¹

B4: VAD (vanillyl-alcohol dehydrogenase from Marinicaulis flavus) (Hyphococcus luteus; P151T) (protein)
chain: B1 chain with I151T
notes: as for B1
- Km [1]: 17.6 ± 5.5 µM
- kcat [1]: 0.48 ± 0.03 s⁻¹
- kcat/Km [1]: 27000 M⁻¹ s⁻¹

B5: EUGO (eugenol oxidase from Rhodococcus jostii RHA1) (Rhodococcus jostii RHA1) (protein)
chain: MTRTLPPGVSDERFDAALQRFRDVVGDKWVLSTADELEAFRDPYPVGAAEANLPSAVVSPESTEQVQDIVRIANEYGIPLSPVSTGKNNGYGGAAPRLSGSVIVKTGERMNRILEVNEKYGYALLEPGVTYFDLYEYLQSHDSGLMLDCPDLGWGSVVGNTLDRGVGYTPYGDHFMWQTGLEVVLPQGEVMRTGMGALPGSDAWQLFPYGFGPFPDGMFTQSNLGIVTKMGIALMQRPPASQSFLITFDKEEDLEQIVDIMLPLRINMAPLQNVPVLRNIFMDAAAVSKRTEWFDGDGPMPAEAIERMKKDLDLGFWNFYGTLYGPPPLIEMYYGMIKEAFGKIPGARFFTHEERDDRGGHVLQDRHKINNGIPSLDELQLLDWVPNGGHIGFSPVSAPDGREAMKQFEMVRNRANEYNKDYAAQFIIGLREMHHVCLFIYDTAIPEAREEILQMTKVLVREAAEAGYGEYRTHNALMDDVMATFNWGDGALLKFHEKIKDALDPNGIIAPGKSGIWSQRFRGQNL
notes: covalent FAD on H390
- Km [2]: 204.4 ± 28.9 µM
- kcat [2]: 9.68 ± 0.43 s⁻¹
- kcat/Km [2]: 47400 M⁻¹ s⁻¹

B6: VAD (vanillyl-alcohol dehydrogenase from Marinicaulis flavus) (Hyphococcus luteus) (protein)
chain: B1 chain with I151P
notes: as for B1
- Km [1]: 74.2 ± 12.4 µM
- kcat [1]: 0.44 ± 0.02 s⁻¹
- kcat/Km [1]: 6000 M⁻¹ s⁻¹
- Km [3]: 51.2 ± 13.1 µM
- kcat [3]: 0.81 ± 0.06 s⁻¹
- kcat/Km [3]: 16000 M⁻¹ s⁻¹
- Km [4]: 330 ± 40 µM
- kcat [4]: 0.06 ± 0.003 s⁻¹
- kcat/Km [4]: 200 M⁻¹ s⁻¹
- Km [5]: 208 ± 9 µM
- kcat [5]: 0.25 ± 0.01 s⁻¹
- kcat/Km [5]: 1200 M⁻¹ s⁻¹

B7: VAD (vanillyl-alcohol dehydrogenase from Marinicaulis flavus) (Hyphococcus luteus; P151L) (protein)
chain: B1 chain with I151L
notes: as for B1
- Km [1]: 72.4 ± 6.3 µM
- kcat [1]: 0.76 ± 0.02 s⁻¹
- kcat/Km [1]: 10500 M⁻¹ s⁻¹

B8: VAD (vanillyl-alcohol dehydrogenase from Marinicaulis flavus) (Hyphococcus luteus; P151V) (protein)
chain: B1 chain with I151V
notes: as for B1
- Km [1]: 42.2 ± 6.6 µM
- kcat [1]: 0.90 ± 0.04 s⁻¹
- kcat/Km [1]: 21000 M⁻¹ s⁻¹
